Key:
[1] = target: transient receptor potential melastatin subfamily member 4 (TRPM4), mouse (mouse) (UniProt Q7TN37); assay: co-immunoprecipitation with anti-TRPM4 antibody from cortical lysates of mice 2 h after i.p. injection of small-molecule compound P4 (40 mg/kg), against control mice
[2] = target: transient receptor potential melastatin subfamily member 4 (TRPM4), mouse (mouse) (UniProt Q7TN37); assay: co-immunoprecipitation with anti-TRPM4 antibody from cortical lysates of mice 6 h after i.p. injection of small-molecule compound P4 (40 mg/kg), against control mice

UniProt Q7TN37, sequence (Q7TN37 whole entry): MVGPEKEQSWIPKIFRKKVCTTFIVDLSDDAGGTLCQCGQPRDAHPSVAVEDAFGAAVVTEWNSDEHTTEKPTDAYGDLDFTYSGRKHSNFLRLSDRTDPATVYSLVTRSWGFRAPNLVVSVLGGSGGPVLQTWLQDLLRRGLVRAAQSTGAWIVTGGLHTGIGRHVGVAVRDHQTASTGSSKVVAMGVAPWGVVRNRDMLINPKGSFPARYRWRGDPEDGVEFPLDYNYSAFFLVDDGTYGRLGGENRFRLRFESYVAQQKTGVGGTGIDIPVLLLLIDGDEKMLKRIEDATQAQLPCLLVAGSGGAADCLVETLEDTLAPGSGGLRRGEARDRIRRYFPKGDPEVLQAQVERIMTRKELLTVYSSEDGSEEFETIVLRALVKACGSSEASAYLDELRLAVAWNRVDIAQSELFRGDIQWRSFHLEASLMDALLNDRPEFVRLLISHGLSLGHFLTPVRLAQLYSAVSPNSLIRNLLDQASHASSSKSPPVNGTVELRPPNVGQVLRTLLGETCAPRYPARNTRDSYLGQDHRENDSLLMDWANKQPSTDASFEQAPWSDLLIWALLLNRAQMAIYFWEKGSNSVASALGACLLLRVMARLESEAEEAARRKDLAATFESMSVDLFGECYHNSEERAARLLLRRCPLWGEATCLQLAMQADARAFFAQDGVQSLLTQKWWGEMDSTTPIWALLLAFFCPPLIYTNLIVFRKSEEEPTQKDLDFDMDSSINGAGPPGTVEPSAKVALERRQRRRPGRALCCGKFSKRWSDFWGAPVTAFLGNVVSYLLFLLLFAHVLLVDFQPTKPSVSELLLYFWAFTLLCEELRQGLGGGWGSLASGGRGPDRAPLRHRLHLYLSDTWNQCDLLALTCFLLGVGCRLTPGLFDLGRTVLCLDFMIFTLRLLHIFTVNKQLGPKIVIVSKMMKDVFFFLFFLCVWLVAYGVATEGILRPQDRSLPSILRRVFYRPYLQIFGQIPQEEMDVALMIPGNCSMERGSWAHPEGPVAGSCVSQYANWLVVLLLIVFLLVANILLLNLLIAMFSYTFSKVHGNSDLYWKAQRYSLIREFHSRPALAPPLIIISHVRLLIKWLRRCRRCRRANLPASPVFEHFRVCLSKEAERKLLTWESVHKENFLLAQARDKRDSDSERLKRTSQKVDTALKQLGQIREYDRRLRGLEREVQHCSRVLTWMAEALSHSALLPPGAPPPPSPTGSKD

“GRIN2B subunit of the NMDA receptor, mouse (from UniProt Q01097 27-1482)” gave a reduction in NMDA receptor/TRPM4 complex formation [1] of 51% and a reduction in NMDA receptor/TRPM4 complex formation [2] of 61%.

From US20210347846A1
